In the supplement of paper PMC9732359:
± gives the uncertainty stated by the source.

Assay: protein stability index of a GFP-peptide fusion (yeast GPS) (PSI 1-4); higher = more stable; sorted into four equal gates, so the index is relative within each strain
Method in brief: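 The protein stability index of a peptide was calculated by multiplying its read frequency in each gate by that gate's number and adding the products. The peptides were tiled 17-residue stretches of yeast proteins, fused downstream of GFP on a Cherry-expressing plasmid and carried in yeast as a pooled library. Mid-log cultures in leucine-free medium were sorted into four equal gates by GFP/Cherry ratio, and each gate's plasmids were PCR-amplified and Illumina-sequenced.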

| Sequence | protein stability index (doa10∆) | protein stability index (pdr5∆) | protein stability index (san1∆) | protein stability index (ubr1∆) |
| --- | --- | --- | --- | --- |
| DDIFIPQNMLFEGCYYT [RPC25] | 2.51 ± 0.17 | 2.89 ± 0.23 | 2.43 ± 0.12 | 2.76 ± 0.12 |
| QGGVLPNIHQNLLPKKS [HTA1] | 2.67 ± 0.082 | 2.75 ± 0.074 | 2.9 ± 0.076 | 2.71 ± 0.057 |
| AAVETLYQDMAARHRAR [RPL20A] | 2.96 ± 0.065 | 3.23 ± 0.059 | 2.91 ± 0.051 | 2.91 ± 0.064 |
| DLSLNIHPIPSVTVSQG [YMR129W/POM152] | 1.98 ± 0.055 | 2.43 ± 0.057 | 1.98 ± 0.074 | 2.17 ± 0.039 |
| YQWNLDGLQQLDKYLYV [RPN1] | 2.92 ± 0.068 | 3.08 ± 0.058 | 2.49 ± 0.12 | 2.2 ± 0.046 |
| DLKASQRVCLRSDSYML [RPT6] | 2.92 ± 0.1 | 3.08 ± 0.077 | 2.92 ± 0.075 | 2.82 ± 0.051 |
| VIQDEVLAHRIGLVPLK [RPC40] | 2.94 ± 0.27 | – | – | – |
| KTKAMVPPINCIFNFLQ [SME1] | 1.65 ± 0.042 | 1.65 ± 0.037 | 1.97 ± 0.07 | 2.12 ± 0.036 |
| TILQHLSEAWRCWKANI [PRP8] | 3.33 ± 0.081 | 3.36 ± 0.083 | 3.5 ± 0.047 | 3.32 ± 0.068 |
| FIMASVGKYDKAIELLE [SRP72] | 2.37 ± 0.12 | 2.38 ± 0.11 | 2.54 ± 0.13 | 3.1 ± 0.2 |
| LVSTLTTGISSTGAADG [SMC2] | 2.34 ± 0.097 | 2.65 ± 0.088 | 2.93 ± 0.092 | 2.69 ± 0.059 |
| ATNTFGSNQQSSTGGGL [YGR119C/NUP57] | 2.89 ± 0.12 | 3.23 ± 0.076 | 3.15 ± 0.13 | 2.9 ± 0.075 |
| KMKIQETISKLNEYKRE [SMC2] | 1.3 ± 0.065 | 1.48 ± 0.051 | 2.35 ± 0.084 | 1.93 ± 0.036 |
| LYGTAIGARSQGAKTYL [PRE5] | 2.88 ± 0.13 | 3.21 ± 0.079 | 3.04 ± 0.078 | 3.13 ± 0.079 |
| YLAHEDNKEKDFELEIS [PRE10] | 2.84 ± 0.17 | 2.86 ± 0.12 | 3.23 ± 0.1 | 3.33 ± 0.072 |
| LLRIQMLLCVSYFLQER [PCI8] | 1.29 ± 0.046 | 1.45 ± 0.044 | 1.35 ± 0.074 | 1.22 ± 0.052 |
| HRCAIRSGALIKFKKCD [SSN2] | 2.28 ± 0.096 | 2.26 ± 0.1 | 2.77 ± 0.054 | 2.49 ± 0.11 |
| VLAGDTRNITDYSINSR [PRE7] | 2.93 ± 0.09 | 3.29 ± 0.075 | 3.22 ± 0.061 | 3.24 ± 0.058 |
| LPNETINDRNDRAIRKT [DIS3] | – | – | – | 2.29 ± 0.11 |
| TPKVVRSQDQENPAFLP [SEC65] | 2.66 ± 0.074 | 2.57 ± 0.067 | 2.16 ± 0.063 | 2.65 ± 0.055 |
| SSSANKLLQLFLTPMDS [YML103C/NUP188] | 1.81 ± 0.052 | 1.61 ± 0.059 | 1.64 ± 0.085 | 1.41 ± 0.042 |
| IRGAVGNSEAIPGLSAG [RTT102] | 3.23 ± 0.057 | 3.36 ± 0.068 | 3.26 ± 0.088 | 3.43 ± 0.053 |
| TQSGGVRPFGVSTLIAG [PRE6] | 1.5 ± 0.14 | 1.72 ± 0.12 | 1.75 ± 0.17 | 1.43 ± 0.081 |
| LGWDLDAIIPFAAIPEQ [FAS2] | 2.6 ± 0.28 | 3.14 ± 0.15 | – | 3.15 ± 0.16 |
| VDSNLPDDEKFTDENTI [RPC40] | 2.35 ± 0.15 | 3.46 ± 0.21 | 2.02 ± 0.19 | – |
| PQDDDSQSKMMSSQISS [MTR3] | 3.14 ± 0.074 | 3.17 ± 0.071 | 3.15 ± 0.043 | 3.27 ± 0.053 |
| EITVVKPDSDIVALSSE [PRE6] | 3.1 ± 0.058 | 3.23 ± 0.051 | 3.24 ± 0.04 | 3.3 ± 0.049 |
| IPDFRSSEGFYSKIKHL [SIR2] | 2.33 ± 0.13 | 2.21 ± 0.075 | 2.17 ± 0.15 | 2.45 ± 0.079 |
